Measurements taken from the Human Domainome abundance scans (Beltran et al. 2025).
± gives the uncertainty stated by the source.

B1: Storkhead-box protein 2, residues 64 to 141; numbered along this chain, Q9P2F5 (parent)
chain: SPISQSQFIPLGEILCLAISAMNSARKPVTQEALMEHLTTCFPGVPTPSQEILRHTLNTLVRERKIYPTPDGYFIVTP
B2: MEF2-activating motif and SAP domain-containing transcriptional regulator, residues 170 to 204; numbered along this chain, Q6ZN01 (parent)
chain: LKLEELTVSELRQQLRLRGLPVSGTKSMLLERMRG

Variants of: B1
Experiment: abundance fitness (aPCA) (normalised: wild type 0, dead -1); higher = more abundant; growth selection in yeast, the domain comes from the species named
Details: Homo sapiens

Abundance fitness of substitutions, site by site:
V76: P 0.001 ± 0.051; S 0.092 ± 0.044; E 0.037 ± 0.064; M 0.035 ± 0.075; K 0.032 ± 0.099; H -0.114 ± 0.092; G -0.011 ± 0.036; I -0.363 ± 0.12; D -0.102 ± 0.089; T -0.03 ± 0.057; F -0.012 ± 0.096; W -0.028 ± 0.051; N 0.05 ± 0.078; Y -0.087 ± 0.11; Q -0.007 ± 0.078
P78: M -0.289 ± 0.12; G -0.239 ± 0.11; C 0.072 ± 0.2; R 0.049 ± 0.082; H -0.191 ± 0.15; A -0.05 ± 0.064; N -0.219 ± 0.18; F -0.37 ± 0.2; V -0.182 ± 0.09; K -0.086 ± 0.21; Y -0.098 ± 0.14; E -0.44 ± 0.29; T -0.191 ± 0.085; S -0.038 ± 0.064
T77: F -0.073 ± 0.076; C 0.04 ± 0.072; G -0.057 ± 0.048; I -0.261 ± 0.082; M -0.164 ± 0.12; N 0.059 ± 0.085; D 0.077 ± 0.06; S 0.024 ± 0.07; A -0.019 ± 0.057; H -0.084 ± 0.079; Q -0.099 ± 0.078; V -0.065 ± 0.046; P -0.003 ± 0.088; E 0.034 ± 0.088; W -0.111 ± 0.049; L -0.072 ± 0.066; Y -0.084 ± 0.071; R 0.09 ± 0.048

Variants of: B2
Experiment: as above
Details: Homo sapiens

Abundance fitness, by site and new letter:
E4: L -0.919 ± 0.085; H -0.046 ± 0.14; M -0.41 ± 0.071; I -0.464 ± 0.23; T -0.171 ± 0.061; G -0.574 ± 0.055; Y -0.804 ± 0.18; P -0.394 ± 0.29; V -1.08 ± 0.16; D -0.035 ± 0.11; Q -0.317 ± 0.16; A -0.667 ± 0.12; N -0.017 ± 0.21; F -0.679 ± 0.1; S -0.23 ± 0.11; C -0.518 ± 0.14
L1: S -0.12 ± 0.068; V -0.134 ± 0.11; G -0.364 ± 0.21; F -0.19 ± 0.13; R -0.262 ± 0.14; N 0.092 ± 0.45; I 0.108 ± 0.073; E 0.136 ± 0.086; Y 0.02 ± 0.24; W -0.045 ± 0.11; K -0.05 ± 0.22
V8: S -0.28 ± 0.068; A 0.142 ± 0.093; R -0.309 ± 0.063; M -0.206 ± 0.17; P -0.39 ± 0.091; W -0.03 ± 0.18; G -0.429 ± 0.06; Y -0.576 ± 0.15; H -0.486 ± 0.092; C -0.486 ± 0.49; Q -0.648 ± 0.074; K -0.066 ± 0.11; N -0.387 ± 0.14; L -0.099 ± 0.055; E 0.026 ± 0.072; D -0.38 ± 0.073
K2: N -0.128 ± 0.17; W -0.159 ± 0.14; L -0.444 ± 0.08; E 0.007 ± 0.067; S -0.201 ± 0.11; P -0.572 ± 0.12; D -0.496 ± 0.26; C -0.136 ± 0.07; R -0.042 ± 0.1
S9: C -0.347 ± 0.13; V -0.121 ± 0.056; M 0.122 ± 0.1; N 0.182 ± 0.19; G -0.111 ± 0.057; E 0.181 ± 0.074; Q 0.164 ± 0.069; L -0.275 ± 0.1; D 0.173 ± 0.074; R -0.09 ± 0.05; P -0.291 ± 0.2; K 0.084 ± 0.12; A 0.016 ± 0.054
E5: P -0.335 ± 0.19; Q -0.306 ± 0.1; A -0.218 ± 0.069; L -0.548 ± 0.1; T -0.271 ± 0.11; C -0.183 ± 0.18; R -0.239 ± 0.084; V -0.329 ± 0.088; G -0.359 ± 0.1; Y -0.424 ± 0.11; S -0.188 ± 0.074; W -0.776 ± 0.14
T7: C -0.594 ± 0.17; G -0.199 ± 0.054; P -0.227 ± 0.15; V -1.29 ± 0.13; M -0.598 ± 0.16; D -0.111 ± 0.2; A -0.519 ± 0.18; N -0.249 ± 0.4; H -0.48 ± 0.098; E -0.347 ± 0.072; K -0.184 ± 0.097; Q -0.336 ± 0.07; L -0.768 ± 0.099; W -0.518 ± 0.099; S -0.071 ± 0.065
L6: E -0.369 ± 0.11; N -0.166 ± 0.11; G -0.533 ± 0.059; I -0.266 ± 0.13; A -0.314 ± 0.067; V -0.399 ± 0.078; H -0.434 ± 0.11; T -0.632 ± 0.11; D -0.356 ± 0.14; R -0.458 ± 0.064; Q -0.236 ± 0.07; C -0.299 ± 0.19; Y -0.384 ± 0.12; W -0.175 ± 0.072
L3: G -0.304 ± 0.05; V -0.272 ± 0.097; R -0.416 ± 0.064; Y -0.556 ± 0.16; E -0.249 ± 0.1; K 0.017 ± 0.11; W -0.434 ± 0.089; A -0.275 ± 0.16; C -1.03 ± 0.15; S -0.22 ± 0.088; D -0.098 ± 0.12; Q -0.296 ± 0.089; P -0.14 ± 0.087; F 0.065 ± 0.16
